The values below come from the supplement of paper PMC12042874.

± gives the uncertainty stated by the source.

This series is described as follows: amyloid nucleation score (Sup35N fusion, yeast selection) (log enrichment); library NNK2; higher = more nucleation; inactive = no reads after selection. An outline of the steps: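 DiMSum was used to calculate nucleation scores as log enrichment of output over input reads, centred on the mode score of non-aggregating sequences. Sequences with fewer than 100 input reads were not scored. Input and output came from Illumina sequencing of plasmid inserts in psi-negative yeast expressing peptides of 20 random codons fused to Sup35N, induced 24 hours with 100 μM copper sulfate and then grown 7 days at 30°C on medium lacking adenine and uracil.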

Substance YMNQERVQTVFDSRICFRLH showed an amyloid nucleation score of -0.246 ± 0.35.

As to ALTVKSQLCG, the amyloid nucleation score is -1.71 ± 1.1.

With YNSTLKFLSKLKLVNIIGTV, the amyloid nucleation score was -1.26 ± 1.1.

Regarding GKNELYQVS, the amyloid nucleation score turned out to be 0.774 ± 0.41.

On to SRNIMLGWVPWYYCWKAPSI, for which the amyloid nucleation score came out at 0.034 ± 0.63.

NMYTWAE gave an amyloid nucleation score of 0.371 ± 0.6.

On to STRLEVLKLERKIMSSKLFL, for which the amyloid nucleation score was determined as 0.699 ± 0.18.

Substance DAFYDS showed an amyloid nucleation score of -2.05 ± 0.75.

In turn, IFWVVEFWIYYTSFLSWETR had an amyloid nucleation score of 0.455 ± 0.51.

Regarding QHWRLNWNEDFFMYWYGFLT, the amyloid nucleation score is -0.655 ± 0.41.

As to WNLFMQYAFYRMDLASK, the amyloid nucleation score is -0.689 ± 1.1.

Regarding VFGSEVSNIRRESWRSLIGQ, the amyloid nucleation score is 0.756 ± 0.18.

The substance MIPKVFSIRKSVGIYWNAEY gave an amyloid nucleation score of -1.04 ± 0.39.

On to PLVLKCRCLI, for which the amyloid nucleation score is -1.32 ± 1.1.

The substance AIIGKFVGVCCD registered an amyloid nucleation score of -0.931 ± 1.1.

In turn, RPGHYRTWYFSGFYSSPCQT came in with an amyloid nucleation score of 1.49 ± 0.19.

As for TGKLCSSIKWWGT, the amyloid nucleation score was determined as 1.06 ± 0.39.

Take SWWYSKELKSRSAILATMMK: the amyloid nucleation score was -0.151 ± 0.28.

CCQSSEYCWCAWQTSVTSVG had an amyloid nucleation score of 0.404 ± 0.8.

As to IVMFQNFVQMDVNYCCFLEV, the amyloid nucleation score stood at 6.768 ± 0.04.

LRFSWDKISFVVRWLVVGLT showed an amyloid nucleation score of 0.138 ± 0.19.

Consider TIALPNFVWPKSSRKVYFS, for which the amyloid nucleation score was -0.748 ± 0.32.

In turn, FFSSTMNCVSLKRVKL came in with an amyloid nucleation score of -0.432 ± 1.1.

Turning to FIVSDSRCVGNVTNGQSVLS, the amyloid nucleation score was -0.97 ± 0.63.

SSYGLVKR showed an amyloid nucleation score of 0.655 ± 0.35.

For the substance TSVIIIGYCI, the amyloid nucleation score came to 5.997 ± 0.034.

On to FIAFFSWFFGWWRKMQAQAL, for which the amyloid nucleation score entry is “inactive”.

Take IACYMMGLRLL: the amyloid nucleation score is -0.414 ± 0.41.

Turning to GGLAGWSGWNTQDELGCGTT, the amyloid nucleation score was found to be 0.775 ± 0.4.

Take DRNVTESMGYVWTASWGAY: the amyloid nucleation score was determined as 0.366 ± 0.41.

Consider CNTLLTFNYNAYVIEVM, for which the amyloid nucleation score amounted to 0.839 ± 0.17.

As for LSVTPIFGRNTDTLESGL, the amyloid nucleation score is -0.093 ± 0.55.

Regarding VMGNFRFYRSMLAFDYDEGV, the amyloid nucleation score was 1.14 ± 0.18.

The substance CHLIVICIQFDKLNLESAFH gave an amyloid nucleation score of 0.547 ± 0.81.

In turn, VFLTGCIPR showed an amyloid nucleation score of 0.052 ± 0.37.

For the substance ITACCRSR, the amyloid nucleation score was found to be 3.02 ± 0.062.

For the substance IMVRVIAFNVL, the amyloid nucleation score was 6.864 ± 0.041.

Turning to LYRRIRCFIYPFCKGVRCLC, the amyloid nucleation score was -1.77 ± 0.62.

Consider GGDAYGRINAASYARIPRLS, for which the amyloid nucleation score came to 0.902 ± 0.22.

The substance CYISFWARRFDEYLSLLSFA had an amyloid nucleation score of -0.343 ± 0.42.

Turning to RMQVYGDMSKCKDSWFCFRT, the amyloid nucleation score came to 0.703 ± 0.4.

The substance GRWSRF showed an amyloid nucleation score of 0.446 ± 0.64.

In turn, VSTGAWCYGLWSVLQGWERG gave an amyloid nucleation score of 5.02 ± 0.082.

Regarding AYFTYDNANLFDPFTRYTIE, the amyloid nucleation score was found to be 0.073 ± 0.55.

For KNNSFWGISLTGLLGYIYTR, the amyloid nucleation score was -0.627 ± 1.

FIITNWQVSFRL returned an amyloid nucleation score of 4.383 ± 0.042.

The substance LLGARDFGWGLHGLLGYRLG displayed an amyloid nucleation score of 0.123 ± 0.56.

The substance CSTTWGDTIAGHEAGLVSLS had an amyloid nucleation score of 1.02 ± 0.37.

CSLQYYSLRNDRDRVTELRR gave an amyloid nucleation score of 0.475 ± 0.51.

For the substance RFRKSLGALALRRIVGSEAM, the amyloid nucleation score was 1.53 ± 0.39.

Take LLSGEDQLMKYLKSKNSCLW: the amyloid nucleation score is -0.67 ± 0.79.

As to TVAGYCVPSSSCRTGTFTVC, the amyloid nucleation score is -0.567 ± 0.33.

RSSLEKIMIGNFNYVRVKLH: the amyloid nucleation score was found to be 2.28 ± 0.18.

VNGHLNFAS gave an amyloid nucleation score of 0.712 ± 0.56.

The substance VLLHCRSICGTRLALPLTGR returned an amyloid nucleation score of 1.57 ± 0.4.

In the case of FTWVYMHNIIFLLGSRLYIK, the amyloid nucleation score result was “inactive”.

With YIFSIS, the amyloid nucleation score is -1.26 ± 0.62.

As for LVVNASLRWIRHWSKGF, the amyloid nucleation score stood at 4.515 ± 0.035.

NSFTLKCSKGVGYKALHLGT: the amyloid nucleation score is 2.9 ± 0.097.

On to FIWSLRGDDRSCLRLSSLQT, for which the amyloid nucleation score is -1 ± 0.63.

In turn, VLLSKGRNHSPCVHILAIIP gave an amyloid nucleation score of 0.494 ± 0.8.

ISIVPYYNLGIGGRVTGSEA had an amyloid nucleation score of 0.012 ± 0.3.

Turning to YIFSILRDKSVPFDSQVSKN, the amyloid nucleation score is -0.797 ± 1.1.

In turn, YSPSVVVDCRSGRDRNLRGY yielded an amyloid nucleation score of -0.254 ± 0.55.

Consider FRVSSIWDRLVATLGNMCRS, for which the amyloid nucleation score result is “inactive”.

Turning to VVVNYVFPLSEFMLISDAKC, the amyloid nucleation score stood at 0.833 ± 0.8.

FPARFHACLDYKWFGTGRPS gave an amyloid nucleation score of 2.41 ± 0.12.

As for IVHLSHQG, the amyloid nucleation score is -1.25 ± 0.62.

Substance LDDPCSHYILGSGHDHVLRR yielded an amyloid nucleation score of 0.697 ± 0.81.

NEPETLWFLLVVWEGINISP: the amyloid nucleation score amounted to 0.561 ± 0.64.

YSSADGPDSDMCRSVLKLVI yielded an amyloid nucleation score of 0.287 ± 0.25.

In turn, FFYYMRSIT gave an amyloid nucleation score of -1.9 ± 0.78.

Regarding FAVKGCNFGTGVFMRVE, the amyloid nucleation score was found to be 0.021 ± 0.34.

For the substance LMTSDAGSLAIVVVNCNFGT, the amyloid nucleation score stood at 7.942 ± 0.023.

As for FVHKSCSAALTTLGTVAD, the amyloid nucleation score turned out to be 4.333 ± 0.042.

Regarding RYNHRFKVVLSHNIDLWQGS, the amyloid nucleation score amounted to 0.689 ± 0.47.

LWFITCNMSGHWLLTERR yielded an amyloid nucleation score of 4.39 ± 0.064.

For CLCPTNYDSSRIYLVRC, the amyloid nucleation score entry is “inactive”.

As for MNLSGVQVAMFSSQPVALTG, the amyloid nucleation score came to 0.097 ± 0.63.

As for RSALVGGRHNVVNWVRGSKM, the amyloid nucleation score was found to be 0.079 ± 0.55.

As to NFRGTVLLAR, the amyloid nucleation score is 0.468 ± 0.74.

For the substance PHRSPMGANHPERCLVPMLF, the amyloid nucleation score is -0.134 ± 0.55.

The substance FQSDIKVIIMSTCTISGGRY showed an amyloid nucleation score of 1.33 ± 0.25.

Turning to YQIFNKLVAHFKYNYTQTDR, the amyloid nucleation score was -0.902 ± 0.56.

KGRFHNLTEPGRVQEKE had an amyloid nucleation score of -1.32 ± 0.49.

PWAMDQVTLSMVLPFMWPRL returned an amyloid nucleation score of 0.456 ± 0.39.

As for LDAGCRMYWGVRLEFRICNL, the amyloid nucleation score amounted to 4.79 ± 0.062.

LSEFYRLRYYTGCQ came in with an amyloid nucleation score of 1.05 ± 0.31.

FNLAPLMVIMPGIMGWGLLG gave an amyloid nucleation score of 1.67 ± 0.16.

Regarding GMYLVENLLFRAQCRSTHWQ, the amyloid nucleation score was 1.25 ± 0.37.

As to ARCTKINLGPYRGSINSLFW, the amyloid nucleation score entry was “inactive”.

Substance ILILVLIECLILWFCYTMCI gave an amyloid nucleation score of 3.16 ± 0.049.

LWGMGGAWEPERETLVV returned an amyloid nucleation score of -0.268 ± 0.63.

LRYAYTFDVDLSTRQAAVSL: the amyloid nucleation score was -0.573 ± 0.79.

In the case of FSPIYRHGHKCML, the amyloid nucleation score was -0.672 ± 0.54.

Substance EFYFG returned an amyloid nucleation score of 0.599 ± 0.8.

LSIFKGNTNLLLSYVPALNI registered an amyloid nucleation score of -1.29 ± 0.64.

On to KLHQNSKGCPGVLPVDGLKM, for which the amyloid nucleation score was found to be 0.82 ± 0.56.

As for GNSIVENFLCSRHQCYVM, the amyloid nucleation score came out at 8.598 ± 0.046.

As to FRFCHCLEFQVY, the amyloid nucleation score stood at 0.126 ± 0.5.

On to LLSQKRGCHVSGHIGVEA, for which the amyloid nucleation score is -0.218 ± 0.31.

SLGIVNSHIFAMWTFSSMGA showed an amyloid nucleation score of 3.74 ± 0.065.

YFLGAFTYVFCACHSFCRYW had an amyloid nucleation score of 1.86 ± 0.15.

Take LFGVYMLQVCVKNSKLSRSE: the amyloid nucleation score is -0.133 ± 1.

Substance DSRMRWL gave an amyloid nucleation score of 0.149 ± 0.27.

NVPCGLN displayed an amyloid nucleation score of -0.032 ± 1.1.

The substance MRWFNNVFFGYVVSVSRSWN had an amyloid nucleation score of -1.01 ± 1.1.

Substance LNVKFK returned an amyloid nucleation score of -0.966 ± 1.1.

With IVSVYATAIGGVRFRECCIG, the amyloid nucleation score was -0.09 ± 0.34.

GSVRTDVLSPRFGGTGHLVN gave an amyloid nucleation score of -0.116 ± 0.54.

FGLLYYAYNRFMLARINGHT gave an amyloid nucleation score of -0.261 ± 1.1.

YSIYELPTHYLKCLRSYKSK registered an amyloid nucleation score of -0.627 ± 1.1.

Take IDGYIQGFHGIRLEQLGGVE: the amyloid nucleation score was 0.152 ± 0.48.

For GLIYIRDFSFREKGGCYQGL, the amyloid nucleation score is -1.29 ± 1.1.

For the substance LIAGYDAWWSSKMSRHKVSV, the amyloid nucleation score was -0.232 ± 0.27.

As to KSVQDNDMSPACRAD, the amyloid nucleation score is 0.804 ± 0.45.

For the substance IVYFGQVIIFMVMSNSVCSL, the amyloid nucleation score was -1.38 ± 1.

Substance NIRWRGNPFPCIVRNSVGEI returned an amyloid nucleation score of 0.097 ± 0.31.

For the substance DVRVISNDNAWDDLRLYFDK, the amyloid nucleation score was determined as 0.36 ± 0.3.

On to YYTPRWCFAYVSRLVWFLLP, for which the amyloid nucleation score result was “inactive”.

For VGIGVAERCDSRWLL, the amyloid nucleation score was 0.886 ± 0.3.

For SVLSLFWLFTDFLVVSHDIL, the amyloid nucleation score was -0.784 ± 1.1.

With HLTESHFGWFGSDVSSQTFL, the amyloid nucleation score came to 3.42 ± 0.084.

As for TNLFVSLPQPSVVKSSGSLQ, the amyloid nucleation score was determined as 0.212 ± 0.31.

Substance RCSDVTDFNKM displayed an amyloid nucleation score of 0.122 ± 1.1.

On to RSGLSVIYLYY, for which the amyloid nucleation score entry was “inactive”.

In turn, CMKGVNSLDIASVSQFNLNR showed an amyloid nucleation score of 2.28 ± 0.13.

FNATIVDRDLRSRGQNRSLQ: the amyloid nucleation score was 0.362 ± 0.65.

In turn, CCQFLVTWDVAYTSMFGSTL yielded an amyloid nucleation score of 3.56 ± 0.056.

For NHCPHTKWGTTYCAHGCIHA, the amyloid nucleation score is 0.639 ± 0.46.

Regarding LLWLPR, the amyloid nucleation score turned out to be 0.376 ± 0.31.

In the case of MDNTWNLCDSFYSCSGDLNT, the amyloid nucleation score is -0.595 ± 0.35.

SCCMGICGKDLCDGIELKFP had an amyloid nucleation score of -0.936 ± 1.

Substance DKSNGVTMVESITSGG had an amyloid nucleation score of -0.303 ± 0.56.

With ILWNYIYDKSFGITPDGFV, the amyloid nucleation score is -0.398 ± 1.

With VSITHQLTYW, the amyloid nucleation score came to 1.33 ± 0.53.

For the substance HYLPT, the amyloid nucleation score was -0.208 ± 0.35.

Turning to DIDAIYTFRACGDMPSHFRR, the amyloid nucleation score was -0.172 ± 0.35.

In turn, EMCGATRG yielded an amyloid nucleation score of 3.28 ± 0.085.
